± gives the uncertainty stated by the source.
Experiment: protein stability index of a GFP-peptide fusion (yeast GPS) (PSI 1-4); higher = more stable; sorted into four equal gates, so the index is relative within each strain
Method in brief: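 The protein stability index combines read frequencies across sorting gates, each weighted by its gate number and then summed. To obtain those frequencies, a pooled yeast library of GFP fusions to tiled 17-residue yeast protein peptides, on a plasmid also expressing Cherry, was grown to mid-log phase in leucine-free medium. The cells were sorted into four equal gates by GFP/Cherry ratio before plasmid amplification by PCR and Illumina sequencing.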

| Sequence | protein stability index (doa10∆) | protein stability index (pdr5∆) | protein stability index (san1∆) | protein stability index (ubr1∆) |
| --- | --- | --- | --- | --- |
| FLRQKICLMTLIETVFV [RPN9] | 1.37 ± 0.12 | 1.32 ± 0.12 | 1.06 ± 0.14 | 1.94 ± 0.28 |
| LQDLEEAKSFQDEAELV [RPC82] | 3.5 ± 0.12 | 3.3 ± 0.15 | 3.52 ± 0.14 | 3.72 ± 0.17 |
| ASFQIVEEDHTLGNALR [RPC19] | 2.74 ± 0.21 | 2.22 ± 0.23 | – | 3.35 ± 0.26 |
| GLTQLYKKSTENESTNY [MED7] | 3.08 ± 0.081 | 2.84 ± 0.081 | 2.56 ± 0.1 | 2.96 ± 0.05 |
| SPFRPLEKTSRILNFFD [YMR153W/NUP53] | 2.85 ± 0.13 | 3.22 ± 0.093 | 2.72 ± 0.087 | 2.83 ± 0.07 |
| LGASFGQQQQQSQTNAF [YGL172W/NUP49] | 2.09 ± 0.11 | 2.75 ± 0.075 | 2.07 ± 0.1 | 2.19 ± 0.075 |
| QTHPDTGISQKSMSILN [HTB1] | 3.04 ± 0.056 | 3.01 ± 0.069 | 3.11 ± 0.06 | 2.72 ± 0.068 |
| PKPLKFLRPTYPDLCSI [RPN1] | 2.61 ± 0.07 | 2.69 ± 0.067 | 2.4 ± 0.06 | 2.5 ± 0.042 |
| KVENLDYMYENGKLTSA [YML031W/NDC1] | 3.59 ± 0.25 | 3.3 ± 0.12 | 3.04 ± 0.12 | – |
| RYDSNSGGEREIQRTML [RPT2] | 3.43 ± 0.12 | 3.62 ± 0.096 | 3.39 ± 0.12 | 3.38 ± 0.1 |
| LLDFNTALKQYEKELMG [RPN6] | 3.14 ± 0.25 | 3.33 ± 0.19 | 3.32 ± 0.25 | 3.12 ± 0.13 |
| DEISPELLSKYKEQIIQ [SNU114] | 2.44 ± 0.079 | 2.57 ± 0.08 | 2.42 ± 0.079 | 2.68 ± 0.075 |
| ELSTDIILKTRQINKLI [SRB7] | 1.2 ± 0.13 | 1.19 ± 0.066 | 1.37 ± 0.23 | 1.2 ± 0.13 |
| TNYEMSYWQKSYFKNSV [LIN1] | 2.07 ± 0.038 | 2.09 ± 0.036 | 2.09 ± 0.061 | 1.99 ± 0.037 |
| LSTLEPSTSITLAERQQ [RPN9] | 2.9 ± 0.055 | 2.91 ± 0.058 | 2.58 ± 0.062 | 2.86 ± 0.036 |
| IKMQRQFSQLNDPNAAV [MED6] | 3.01 ± 0.07 | 3.04 ± 0.059 | 3.09 ± 0.06 | 3.16 ± 0.059 |
| LFKPLNKTLTLDLKECY [ARP7] | 2.4 ± 0.067 | 2.14 ± 0.068 | 1.89 ± 0.15 | 2.27 ± 0.12 |
| IIKANQLILSDVDPEFY [RET1] | 1.51 ± 0.094 | 1.76 ± 0.081 | 1.6 ± 0.11 | 1.96 ± 0.081 |
| TNSEDKLSKVQLYEDLC [MED4] | 3.04 ± 0.083 | 3.22 ± 0.091 | 3.09 ± 0.081 | 2.74 ± 0.059 |
| TGLHFGRLSLRSLTAYA [QCR10] | 1.22 ± 0.044 | 1.5 ± 0.059 | 1.39 ± 0.095 | 1.65 ± 0.055 |
| LPYNWDALEMQWRYLYD [ARP7] | 2.1 ± 0.065 | 2.1 ± 0.073 | 2.44 ± 0.11 | 2.19 ± 0.068 |
| VLSTEEILNIFKHISVK [RPO21] | 2.68 ± 0.13 | 3.44 ± 0.24 | 2.94 ± 0.12 | 1.6 ± 0.17 |
| GRNNGKKLKAVRIIKHT [RPS5] | 2.06 ± 0.12 | 2.25 ± 0.08 | 1.79 ± 0.09 | 2.81 ± 0.082 |
| ESNNPSHDASRSLASFE [SIR4] | 2.97 ± 0.1 | 3.14 ± 0.12 | 3.02 ± 0.072 | 3.02 ± 0.17 |
| SKYFIIDSFFLYVLPSF [YMR129W/POM152] | 1.55 ± 0.045 | 1.65 ± 0.035 | 1.75 ± 0.06 | 1.23 ± 0.028 |
| PSKTPEVYMRYRNFMVN [SWI3] | 1.8 ± 0.075 | 1.81 ± 0.072 | 1.82 ± 0.14 | 1.81 ± 0.062 |

| Sequence | protein stability index (doa10∆) | protein stability index (pdr5∆) | protein stability index (san1∆) | protein stability index (ubr1∆) |
| --- | --- | --- | --- | --- |
| LATLHYQKKQYKDSLAL [RPN6] | 1.91 ± 0.28 | 1.47 ± 0.17 | 2.62 ± 0.19 | 2.14 ± 0.23 |
| KVPIGLILQRLKDLNLT [RGR1] | 2.48 ± 0.1 | 2.57 ± 0.09 | 2.98 ± 0.074 | 2.63 ± 0.053 |
| DGILRLYDALEPSDLRS [YGL100W/SEH1] | 3.02 ± 0.061 | 3.02 ± 0.051 | 2.77 ± 0.041 | 2.99 ± 0.042 |
| DVVERLHKNFESENFKI [RGR1] | 3.74 ± 0.18 | 3.4 ± 0.3 | 3.23 ± 0.18 | 3.81 ± 0.18 |
| YKYGYDMPCDVLAKRMA [SCL1] | 2.51 ± 0.067 | 2.25 ± 0.049 | 2.61 ± 0.073 | 2.29 ± 0.058 |
| FTLTYDIIETFSSKRKT [YMR129W/POM152] | 1.88 ± 0.05 | 2.07 ± 0.064 | 1.69 ± 0.077 | 2.33 ± 0.056 |
| YAQRIGSGAPVYLTAVL [HTA1] | 2.35 ± 0.058 | 2.48 ± 0.072 | 2.53 ± 0.097 | 2.35 ± 0.051 |
| HRQEIFKDSPMDLFMST [GAL11] | 2.85 ± 0.089 | 2.98 ± 0.059 | 3.23 ± 0.073 | 2.87 ± 0.076 |
| AAGTSQARTATLKYICA [RPC10] | 2.16 ± 0.15 | 2.07 ± 0.11 | 1.72 ± 0.11 | 2.24 ± 0.094 |
| KGSRKSSKAATPDTKNF [SNF12] | 3 ± 0.063 | 2.87 ± 0.052 | 3 ± 0.058 | 2.98 ± 0.042 |
| GISLVMEIVANAKESNY [MED1] | 1.77 ± 0.065 | 1.98 ± 0.069 | 2.28 ± 0.085 | 2.15 ± 0.043 |
| EKEEEAKEESDDDMGFG [RPP2B] | 3.05 ± 0.2 | 3.29 ± 0.14 | 2.84 ± 0.15 | 3.43 ± 0.07 |
| TDQILQLLKEDSEKRNK [RRP45] | 3.12 ± 0.16 | 3.3 ± 0.29 | 3.52 ± 0.098 | 3.36 ± 0.11 |
| NGIIMNGTLIGCVSYSP [YMR153W/NUP53] | 1.99 ± 0.066 | 1.95 ± 0.076 | 2.46 ± 0.21 | 2.24 ± 0.083 |
| EATQDDDFDMLFGENDT [NUT1] | 2.92 ± 0.071 | 3.13 ± 0.06 | 3.06 ± 0.065 | 3.04 ± 0.062 |
| NECVCTPYNADFDGDEM [RPO31] | 3.06 ± 0.069 | 3.18 ± 0.069 | 3.06 ± 0.049 | 3.11 ± 0.09 |
| PSYVHFKVQIIELLSYL [YML103C/NUP188] | 1.41 ± 0.063 | 2.27 ± 0.065 | 1.8 ± 0.072 | 2.04 ± 0.05 |
| KHEDLSLEQRQEVTKFA [RPN4] | 2.85 ± 0.15 | 3.05 ± 0.23 | 2.84 ± 0.1 | – |
| INGEPSIHVNRVERSSR [RRI1] | 2.99 ± 0.078 | 3.01 ± 0.067 | 3.1 ± 0.053 | 3.1 ± 0.051 |
| QIPTPNNTVDPGFDEFQ [CSI1] | 3.17 ± 0.057 | 2.98 ± 0.045 | 3.04 ± 0.043 | 2.89 ± 0.039 |
| LARSGLRIGRIEDVTPV [RPS14B] | 1.63 ± 0.046 | 1.95 ± 0.052 | 2.25 ± 0.062 | 2.07 ± 0.043 |
| NPHQDLQAQDRAHRIGQ [SNF2] | 3.03 ± 0.077 | 3.04 ± 0.074 | 2.9 ± 0.07 | 3.19 ± 0.053 |
| EIYYDPDPRSTVIPEDE [RPO21] | 3.04 ± 0.11 | 3.07 ± 0.21 | 3.23 ± 0.14 | 3.06 ± 0.098 |
| HFGHCFNITDNGVRALF [GRR1] | 2.07 ± 0.18 | 2.65 ± 0.13 | – | 2.64 ± 0.1 |
| ILNSIPAAANLDALVDC [YJL039C/NUP192] | 2.18 ± 0.074 | 2.72 ± 0.11 | 2.39 ± 0.067 | 2.5 ± 0.12 |
| VKEMEPKQSDEYLKRVS [SIR3] | 2.69 ± 0.056 | 2.74 ± 0.057 | 3.05 ± 0.05 | 2.54 ± 0.076 |

— the supplement of paper PMC9732359
